# Experimental data as given in US20050106674A1.
# Molecular target: recombinant soluble HEK4 binding protein purified from CHO/HL6 cell-conditioned medium (human) (UniProt P52803)
# Experiment: BIAcore competition: soluble receptor extracellular domain preincubated with 0.250 µg/ml HEK4 BP, binding to immobilized HEK4 receptor
# UniProt P52803, sequence (P52803 20-198 limits assumed, form in doubt): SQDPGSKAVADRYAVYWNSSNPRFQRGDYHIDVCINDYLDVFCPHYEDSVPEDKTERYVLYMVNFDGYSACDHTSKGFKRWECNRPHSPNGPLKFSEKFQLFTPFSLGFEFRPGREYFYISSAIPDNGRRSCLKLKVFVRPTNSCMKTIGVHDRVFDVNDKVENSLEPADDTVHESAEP
row,Substance,IC50 [µg/mL]
1,HEK8 soluble receptor (purified extracellular domain) (from UniProt P54764 20-547),10.5
2,"HEK4 receptor extracellular domain (HEK4-X), produced in CHO cells (from UniProt P29320 21-541)",0.55
3,ECK soluble receptor (purified extracellular domain) (from UniProt P29317 24-537),5
